In data set [1] the test system is T1, GST-rCtrA (Ehrlichia chaffeensis), ORF:1c7d897d.
T1 sequence: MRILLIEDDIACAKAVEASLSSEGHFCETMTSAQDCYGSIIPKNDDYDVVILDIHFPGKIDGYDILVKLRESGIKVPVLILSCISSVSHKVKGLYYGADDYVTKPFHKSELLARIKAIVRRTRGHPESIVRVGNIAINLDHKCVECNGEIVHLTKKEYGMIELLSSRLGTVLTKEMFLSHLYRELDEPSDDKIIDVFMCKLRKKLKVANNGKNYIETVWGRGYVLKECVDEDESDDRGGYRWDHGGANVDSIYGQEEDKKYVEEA
Put plainly: EMSA. In general terms: In EMSA bound probe runs differently from free probe, usually more slowly.

Data set [2] relates to NCC(=O)O. As to the kind of experiment: inorganic phosphate formation, ascorbic acid-molybdate, OD750. It counts as biochemical, Ehrlichia chaffeensis. Particulars: 10 mM Na3ATP, 5 mM gamma-glutamylcysteine, 20 mM MgCl2, 50 mM KCl, 2 mM EDTA, 2.5 mM DTT, 100 mM Tris-HCl pH 8.2, 37°C, 30 min. The source says: inorganic phosphate formation, ascorbic acid-molybdate, OD750 on rGshB (E. chaffeensis GshB)

Substrate in data set [3]: N[C@@H](CCC(=O)O)C(=O)O
The description is as above. Format: biochemical, Ehrlichia chaffeensis. Particulars: 5 mM ATP, 10 mM L-alpha-aminobutyric acid, 20 mM MgCl2, 50 mM KCl, 2 mM EDTA, 100 mM Tris-HCl pH 8.0, 37°C, 30 min. An excerpt: inorganic phosphate formation, ascorbic acid-molybdate, OD750 on SUMO-rGshA (E. chaffeensis GshA)

As to “ATATAACCTAATAGTGACAAATAAATTAACAATAGTAGAAGTGTCATATAAAAGCAAGTCAGAATATAAATTTTTGTATAAAATATCGGTAACTTTTGTAAGGAAAATTTAATATATTACGTCAGGTAAGTAATAGCAAAAAAACTGGTTAAGTATAGTATCATGTGTAAAGGTGAGAAAAACAGCACTTATAAACTAGTCCCCCCCCCCCCCCTCTTATTGCTACATTCTTTTGCCACTATTTTTATTTACCTGCAGCA (double strand) [p28 promoter probe, 260 bp]”, the binding entry in data set [1] is “no binding”. Regarding “rGshB (E. chaffeensis GshB) (Ehrlichia chaffeensis str. Arkansas)”, in data set [2], the Km turned out to be 940 ± 320 µM and the Vmax worked out at 0.63 µmol/min/mg.

B1: SUMO-rGshA (E. chaffeensis GshA) (Ehrlichia chaffeensis str. Arkansas) (protein)
chain: MTVIIDTLNDILTKYKLDIENWFFNKFTKYNPVLNISVDLRVSDYKIAPVDTNIFPAGYNNFTEQSQIYASRLLREYVVNYANCSKILIIAENHTRNLKYIDSLIVLKNIVNNAGFVVEVGICNINQNIELISSTGRVINCLCLTNDNGVLRAGCRFIPDLILVNNDMTSGIPEVLQGLKYQSIMPSLFLGWFNRSKSNHFSIYKKLSKEFCESFNIDPWLISAFFSSCSNICFFNSQGIDDIANEVDVVISKIRNKFQLYSIKEQPYVFVKADNGTYGMGILVAYCGDDILMLNRKKRNKMKKIKDGNVVSSVIIQEGITTREIFNGYVAEPLVYFIGHTPSCYLYRYHSVKDRFSNLNSVGCDFIDISYKQQDILYWNIIGKIAVLAAAIEMHEISNVNVMEQNCLLS
notes: tag kept
With B1, in data set [3], the Km amounted to 1030 ± 20 µM and the Vmax was 0.52 µmol/min/mg.

One may read the Km as the concentration of substrate that gives half-maximal velocity. The term Vmax denotes the top rate of the reaction or transport when substrate is in excess.

Values taken from paper PMC9791040, “CtrA activates the expression of glutathione S-transferase conferring oxidative stress resistance to Ehrlichia chaffeensis” (Frontiers in Cellular and Infection Microbiology, 2022).
